Source: PMC7505961

Target: 145-Tailless nucleosome (145 bp Widom 601 DNA with tailless histone mutants H4-del 1-20, H3-del 1-37, H2A-del 1-15 and H2B-del 1-31), P06897
Assay: native gel or EMSA; FAM-labelled nucleosome (0.8 pmol; oligonucleosomes 0.1 pmol) mixed with different amounts of cGAS in 20 mM Tris-HCl pH 7.6, 60 mM NaCl, 5 mM MgCl2, total volume 10 ul; on ice 30 min; 1.5% agarose gel, 0.2x TBE; Kd from percent bound nucleosome against cGAS concentration
Conditions: remark: other sources report otherwise

B1: human cGAS (cGMP-AMP synthase), Q8N884 1-522 (enzyme)
chain: MQPWHGKAMQRASEAGATAPKASARNARGAPMDPTESPAAPEAALPKAGKFGPARKSGSRQKKSAPDTQERPPVRATGARAKKAPQRAQDTQPSDATSAPGAEGLEPPAAREPALSRAGSCRQRGARCSTKPRPPPGPWDVPSPGLPVSAPILVRRDAAPGASKLRAVLEKLKLSRDDISTAAGMVKGVVDHLLLRLKCDSAFRGVGLLNTGSYYEHVKISAPNEFDVMFKLEVPRIQLEEYSNTRAYYFVKFKRNPKENPLSQFLEGEILSASKMLSKFRKIIKEEINDIKDTDVIMKRKRGGSPAVTLLISEKISVDITLALESKSSWPASTQEGLRIQNWLSAKVRKQLRLKPFYLVPKHAKEGNGFQEETWRLSFSHIEKEILNNHGKSKTCCENKEEKCCRKDCLKLMKYLLEQLKERFKDKKHLDKFSSYHVKTAFFHVCTQNPQDSQWDRKDLGLCFDNCVTYFLQCLRTEKLENYFIPEFNLFSSNLIDKRSKEFLTKQIEYERNNEFPVFDEF
Kd: 79 nM
